Measurements taken from US11339209B2, “Compositions, methods, and therapeutic uses related to fusogenic protein minion” (NOVARTIS AG, priority 2016, dated 2022).

Key:
10T1/2 fibroblasts = test: Heterologous co-expression, syncytia formation between fibroblasts; type: cell-based; details: retroviral expression in 10T1/2 fibroblasts, growth medium
Procedure: In order to infect C2C12 cells and 10T1/2 cells, neat virus was incubated with 8 μg/ml polybrene at 37° C. for 10 min and then added to the cells, which were then incubated for 15 min at 37° C. One round of spin infection was performed using 24-well or 12-well plates at 1100 g for 1-1.5 hours and 32° C. After 4-6 hours, fresh neat virus with polybrene was added and a second round of spin infection was performed. Fresh medium was added to the infected cells to dilute the polybrene. […] Infection efficiency of this two-round infection method was generally >95% over a large range of viral concentrations, therefore FACS was not generally necessary. This strong GFP signal was used to mark the boundary of cells, in addition to phase contrast imaging and nuclear markers (FIGS. 22, 23A-23F); moreover, in cells that were fixed with 4% PFA but not permeabilized with detergents, the GFP signal was higher in the nuclear region, allowing unambiguous delineation of both the cell boundary and nuclei. […]
(§1) Cell labeling was performed according to manufacturer's instructions with slight modifications. […] After the last wash, the cells were counted and diluted to the concentration needed for the final mixing experiment in a 384-well or 24-well plate, and were incubated at 37° C. for 30 min. […]

C2C12 myoblasts = test: Cell mixing of 10T1/2 fibroblasts with differentiating C2C12 myoblasts; type: cell-based, mouse; details: 10T1/2 fibroblasts mixed with wild-type C2C12 myoblasts (1:2), 3 days in differentiation medium
From the text: Differentiating myoblasts and myotubes are marked by MHC. 10T1/2 fibroblasts were infected with retrovirus expressing GFP and proteins of interest (left, NanoLuc control; middle, mouse Myomaker; right, mouse Minion). DAPI marks nuclei. […] White arrows indicate MHC-positive myotubes that are not fused to fibroblasts. n=2 (eight technical replicates each). 0.7 mm×0.7 mm fields are shown. […] 0.7 mm×0.7 mm fields at ×20 magnification are shown. Control and Minion^KD myoblasts were used. Differentiating myoblasts and myotubes are marked by MHC. 10T1/2 fibroblasts expressing Myomaker were labelled with CellTrace Violet dye before mixing. […]
as §1
C3H 10T1/2 fibroblasts were infected with retroviruses encoding GFP and either control, Myomaker or Minion; GFP-positive fibroblasts were then mixed with wild-type C2C12 myoblasts and kept in differentiation medium for 3-4 days. Differentiating myoblasts and myotubes were marked by MHC expression, and fusion of GFP-positive fibroblasts to myotubes was readily detected when Myomaker, but not Minion or control, was expressed (FIG. 28A).

MINION^KD C2C12 cells = test: In vitro reconstitution (complementation) assay of the fusion defect in MINION^KD C2C12 cells; type: cell-based, mouse; details: retroviral cDNA expression, 5 days in differentiation medium, MHC immunofluorescence, MINION tested tagged and untagged
Procedure: For primary myoblasts derived from both embryos and adult mice, around 3000 cells in 50 μl myoblast growth medium (1:1 mixture of DMEM low glucose and Ham's F-10 Nutrient Mix; 20% (v/v) FBS; freshly added 2.5 ng/ml rhFGF) were seeded into each well of a 384-well Collagen-coated PerkinElmer CellCarrier™ plate (6007550) for imaging purposes. The next day, differentiation medium (DMEM high glucose (Gibco® 11995073) with 3% to 5% horse serum) was added to the cells (DM day 0). Differentiation medium was replaced daily. The cells were fixed at DM day 3 and day 4 for immunofluorescence staining. For C2C12 cells, ˜1500-2000 cells were seeded into each well of a 384-well plate (DMEM high glucose with 10% FBS) and around 2×10^5 cells were seeded into each well of a 6-well plate, using C2C12 growth medium (DMEM high glucose with 10% FBS). On the next day, differentiation medium (DMEM high glucose with 2% horse serum) was added to the cells (DM day 0), and differentiation medium was likewise replaced daily. […]
For the cloning of cDNA constructs, the coding sequences (CDS) of mouse MINION (for the 84 aa isoform), human MINION ortholog, mouse tmem8c (myomaker), nanoluc (control A), luciferase (control B), mouse MINION with 1 bp insertion, human MINION with 1 bp deletion, and mouse MINION truncation (39 aa form) were synthesized (IDT) with attB sites at both ends and a consensus Kozak sequence (5′ GCCACC (SEQ ID NO: 94)) before the start codon. […] After expression testing of the two 3F1H-tagged mouse and human MINION constructs, it was noticed that two bands were detected by Western blot with anti-FLAG antibody (FIG. 16). […]
To examine the knockdown efficiency of the mouse MINION transcript, shRNA-encoding lentiviruses were used to infect C2C12 cells. […] Based on an estimated viral titer of 1×10^8 vp/ml (as measured on 293T cells), a virus amount equivalent to MOI30 on 293T cells was used on C2C12 cells. […] Infection efficiency of 70-85% was routinely achieved as judged by FACS analysis, though GFP signal in undifferentiated C2C12 cells was barely discernable by EVOS fluorescence microscopy. […]

Myomaker = molecular target: T1, Myomaker (Mus musculus, UniProt Q9D1N4); test: Co-immunoprecipitation of Minion with Myomaker in differentiating muscle cells; type: binding; details: tagged and untagged Minion, endogenous and overexpressed Myomaker
T1 construct: endogenous in cells; host or cells: Differentiating muscle cells
T1 sequence (Q9D1N4 1-221): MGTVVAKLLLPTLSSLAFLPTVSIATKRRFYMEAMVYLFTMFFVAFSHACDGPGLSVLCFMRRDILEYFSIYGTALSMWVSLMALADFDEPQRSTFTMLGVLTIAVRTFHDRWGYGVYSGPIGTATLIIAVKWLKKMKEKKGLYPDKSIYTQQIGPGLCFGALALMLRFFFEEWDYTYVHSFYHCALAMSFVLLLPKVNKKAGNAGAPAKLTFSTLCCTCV

| Molecule | cell fusion between fibroblasts (multinuclear syncytia) (10T1/2 fibroblasts) | fusion of fibroblasts expressing the protein to wild-type differentiating myoblasts and myotubes (C2C12 myoblasts) | rescue of the cell fusion defect (MINION^KD C2C12 cells) | physical interaction with Myomaker (co-immunoprecipitation, western blot) (Myomaker) |
| --- | --- | --- | --- | --- |
| Myomaker: muscle-specific transmembrane protein; mouse tmem8c CDS expressed from retroviral vector (protein) MGTVVAKLLLPTLSSLAFLPTVSIATKRRFYMEAMVYLFTMFFVAFSHACDGPGLSVLCFMRRDILEYFSIYGTALSMWVSLMALADFDEPQRSTFTMLGVLTIAVRTFHDRWGYGVYSGPIGTATLIIAVKWLKKMKEKKGLYPDKSIYTQQIGPGLCFGALALMLRFFFEEWDYTYVHSFYHCALAMSFVLLLPKVNKKAGNAGAPAKLTFSTLCCTCV | neither Myomaker nor Minion alone (FIG. 21D) was sufficient | fused with wild-type differentiating myoblasts and myotubes | incapable of rescuing the fusion defect |  |
| human Minion: human ortholog of MINION, 84 codon ORF, expressed from retroviral cDNA, untagged or C-terminally epitope-tagged (protein, listed as Homo sapiens) MPTPLLPLLLRLLLSRLLLPAARLARQYLLPLLRRLARRLGSQDMREALLGCLLFILSQRHSPDAGEASRVDRLERRERLGPQK |  |  | strongly reconstituted cell fusion |  |
| mouse MINION: 84 aa mouse microprotein inducer of fusion, expressed from retroviral cDNA, untagged or C-terminally 3×FLAG-1×HA-tagged (protein, listed as Mus musculus) MPVPLLPMVLRSLLSRLLLPVARLARQHLLPLLRRLARRLSSQDMREALLSCLLFVLSQQQPPDSGEASRVDHSQRKERLGPQK | neither Myomaker nor Minion alone (FIG. 21D) was sufficient | failed to do so | robustly rescued fusion | no detectable physical interaction |
